Earlier results in article PMC5290461.

Target: integrin beta1A cytoplasmic tail (Homo sapiens) (UniProt P05556)
Test: NMR

Sequence of UniProt P05556 (P05556 752-798): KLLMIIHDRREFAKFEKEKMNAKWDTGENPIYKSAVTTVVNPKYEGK

Row | Kd | Substance
1 | 652 µM | talin2 F3 (from UniProt Q71LX4)
2 | 491 µM | talin1 F3 (from UniProt P26039)
